Assay [1] deals with T1, PapD (Escherichia coli, UniProt P15319).
T1 construct: (A) NAME/KEY: mat_; made in house; Lindberg et al. 1989
T1 sequence (P15319 22-239): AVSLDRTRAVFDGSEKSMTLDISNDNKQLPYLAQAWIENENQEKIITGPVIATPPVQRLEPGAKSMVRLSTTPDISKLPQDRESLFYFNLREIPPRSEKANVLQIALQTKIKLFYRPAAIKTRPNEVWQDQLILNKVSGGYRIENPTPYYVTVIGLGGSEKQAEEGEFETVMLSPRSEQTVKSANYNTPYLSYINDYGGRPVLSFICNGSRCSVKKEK
In words: ELISA: PapD binding to immobilized second site peptides of PapG. More on the design: species or system E. coli. Particulars: peptide coated on wells, 200 pmol PapD. On the procedure:
Four synthetic peptides overlapping the PapG region from residue 156′ to 120′ (indicated in FIG. 20) were coated to wells of microtiter plates. The concentration of each peptide in the wells is indicated. Binding of 200 pmol/[…] of PapD to the immobilized peptide was determined by ELISA using anti-PapD antiserum.
For assaying the second site peptides, all the peptides were dissolved in dimethyl sulfoxide (DMSO, Sigma, St. Louis, Mo., USA) to a final concentration 2 mM. The stock solutions were diluted to a proper concentration in PBS and coated overnight on microtiter wells at 4° C. All the peptide solutions were adjusted to the same DMSO concentration. The subsequent steps followed the procedure described above.

The test system of assay [2] is HB101/pFJ3. In words: Hemagglutination titer on co-expression of MBP/G fusions with the pap operon. It counts as cell-based, E. coli. On the procedure:
HB101/pFJ3 harbouring various MBP/G fusion plasmids was passaged on Trypticase Soy Agar (TSA, Becton Dickinson, Cockeysville, Md., USA) three times to induce P-pili expression. At the last passage, the expression of MBP/G fusions was induced on TSA containing 100 μM IPTG. The cells from different strains were then collected and the HA titers were determined as described (Jacob-Dubuisson et al., 1993b).
PapD is essential for P-pilus assembly (Hultgren et al., 1991). […] The ability of the MBP/G fusions to block pilus formation by inhibiting chaperone-subunit complex formation when co-expressed in trans with the pap operon was tested. Plasmids pMAL-p4, pMAL/G1′-19′, pMAL/G1′-81′ and pMAL/G1′-140′ were transformed into the strain HB101/pFJ3 which contains the pap operon under the control of its own promoter in the vector pACYC184 (Jacob-Dubuisson et al. 1993b). Each MBP/G fusion protein was localized in the periplasm as determined by SDS-PAGE and western blotting with anti-MBP antisera (data not shown). Hemagglutination (HA) assays were performed on the cells co-expressing the pap operon with either MBP (pMAL-p4) or with each of the MBP/G fusions. Co-expression of the MBP/G1′-140′ fusions with the pap operon decreased the HA titer 30 fold compared to the MBP control (see table 3).

For assay [3], the system named is HB101/pFJ3. In words: Pili preparation and quantitation on co-expression of MBP/G fusions. It counts as cell-based, E. coli. On the procedure:
The cells obtained from TSA plates were collected. Pili were prepared from the same amounts of cells using the procedure described previously (Jacob-Dubuisson, et al., 1993b). These pili preparations were boiled in Lammeli sample buffer with 4 M urea, then analyzed on Coomassie blue stained SDS polyacrylamide gels. The relative amount of piliation was quantified by densitometric scanning of the PapA bands.

In assay [4] the target is T1, PapD. In words: In vitro complex formation of PapD with MBP/G fusion proteins on silver stained IEF gel. It counts as binding, E. coli. Here is the method: (A) PapD was incubated with 1 μg of amylose affinity purified MBP (lane), MBP-G1′-19′ (lane 2), MBP-G1′-81′ (lane 3), or MBP-G1′-140′ (lane 4) and complex formation was evaluated on the silver stained IEF gel. Positions of MBP/G fusions, PapD and the PapD-MBP-G1′-140′ complex are indicated.
The interaction between PapD and MBP/G fusion in vitro was assayed by incubating purified PapD (1 μg) and amylose bead affinity purified MBP/G fusion protein (1 μg) in 4 μl PBS for 30 minutes and then applied to IEF (pI 3-9), followed by silver staining. Another in vitro assay that is more quantitative is the ELISA described below.

For assay [5], the target named is T1, PapD. The assay can be described thus: PapD-MBP/G interactions in vivo: co-elution of PapD on amylose affinity chromatography. It counts as binding, E. coli. Here is the method:
Strains carrying MBP or MBP/G fusion gene plasmids were induced in LB broth culture with 1 mM isopropylthiogalactoside (IPTG). Periplasmic extracts were prepared as described (Slonim et al., 1992). One tenth volume of 10×phosphate-buffered saline (PBS, 120 mM NaCl, 2.7 mM KCl, 10 mM Na2HPO4 and 2 mM KH2PO4, pH 7.4) was added to the periplasmic extract. Amylose resin was then added to the periplasmic extracts at a 1:5 ratio. The mixture was rocked at 4° C. overnight and the beads were subsequently washed 5 times with PBS. MBP or MBP/G fusion proteins were eluted with 20 mM maltose in PBS by rocking at 4° C. for an hour. Protein concentrations were determined using the Bio-Rad DC protein assay kit (Bio-Rad Laboratories, Hercules, Calif., USA). The full length fusion protein concentration was further quantitated by the Coomassie stained SDS-PAGE gel with known concentrations of bovine albumin (BSA) as the standards followed by densitometry scanning. […]
The ability of PapD to bind to the MBP/G fusions was investigated using amylose affinity chromatography (Kellermann and Ferenci, 1982). […] Periplasmic extracts from each strain containing the MBP/G proteins and PapD were subjected to amylose affinity chromatography and the eluates analyzed by SDS-PAGE (FIG. 21A) and by western blotting with anti-PapD antisera (FIG. 21B). […]

Assay [6] addresses T1, PapD. In words: ELISA: PapD binding to immobilized MBP/G fusion proteins. Also on record: species or system E. coli. The settings on record: 50 pmol PapD. Here is the method: (B) Amylose affinity purified NBP/G fusion proteins were coated to wells of microtiter plates. The concentration of the MBP/G proteins in the wells is indicated. Binding of 50 pmol/[…] of PapD to the immobilized proteins was determined by ELISA using anti-PapD antiserum.
Stock solutions of MBP/G fusion proteins in PBS were diluted to 40 pmol/50 μl with PBS. The solutions of the 40 pmol/50 μl MBP/G fusion proteins were serially diluted in PBS and 50 μl of each solution were used to coat the wells of a 96-well Nunc Immunoplate (Inter Med, DK-4000 Roskilde, Denmark) overnight at 4° C. The wells were then washed with PBS and blocked with 200 μl of […] in PBS for 2 hours at 25° C. The plates were washed vigorously three times with PBS and incubated with 50 μl of PapD diluted at 50 pmol PapD in 50 μl 3% BSA-PBS for 45 minutes at 25° C. After three washings with PBS, the wells were incubated with a 1:500 dilution of rabbit anti-PapD antiserum in 3% BSA-PBS for 45 minutes at 25° C. After three washings with PBS, the wells were incubated with a 1:1000 dilution of goat antiserum to rabbit IgG coupled to alkaline phosphatase in 3% BSA-PBS for 45 minutes at 25° C. […] The reaction was incubated for 1 hour in the dark at 25° C. and the absorbance at 405 nm was read.
On the technique in general: In an ELISA, binding on a coated surface is turned into a signal by an enzyme label.

The target of assay [7] is T2, G1′-19′WT peptide (Escherichia coli, UniProt P13720).
T2 construct: G1′-19′ denotes the 19 C-terminal amino acid residues of PapG; made in house; host or cells: synthetic peptide
In words: Native polyacrylamide gel mobility shift of PapD (wild type and mutants) with G1′-19′WT peptide. It counts as binding, E. coli. Particulars: native-PAGE assay. An excerpt: The ability of the mutant chaperones to bind pilus subunits and modulate pilus assembly in vivo was correlated to their ability to bind to the G1′-19′WT peptide and to PapG in vitro. […] Similarly, mutations in Arg-8 and Lys-112 abolished the ability of PapD to bind to PapG and reconstitute the PapD-PapG complex in vitro (FIG. 7) and to bind to pilus subunits and mediate pilus assembly in vivo (cf. table 2).

Assay [8] deals with T1, PapD. The assay can be described thus: PapD complex formation with PapG truncates (acidic native gel, western blotting). The settings on record: co-expressed in KS474. It counts as binding, E. coli. Here is the method:
Periplasm containing PapD and PapG, PapG2 or PapG3 (lane 2, 3 and 4 respectively) were subjected to Gal α(1-4) Gal chromatography and eth eluates were analyzed on acidic native gel electrophoresis following western blotting using anti-PapD (A) and anti-PapG (B) antisera. Purified PapD-PapG complex was loaded-in lane 1.
PapD and the PapG-truncates were co-expressed in KS474, the truncates were induced at OD600 0.6 with 0.5 mM IPTG and PapD under the control of the arabinose promoter was induced with 0.2% arabinose. After one hour induction, periplasmic extracts were prepared and rocked with Gal α(1-4) Gal beads overnight at 4° C. and eluted with 15 μg/ml Gal α(1-4) Gal-TMSET solution as described previously (Hultgren et al., 1989; Kuehn et al., 1991). The eluates were analyzed by acidic native gel eletrophoresis (Striker et al., 1994) followed by western blotting using anti-PapD and anti-PapG antiserum.

For “G125′-140′: peptide of C-terminal amino acid residues 125′ to 140′ of PapG, SEQ ID NO: 20 (DQIKQLPATNTLMLSF)”, the “binding to PapD in ELISA” value in assay [1] is listed as “bound to PapD”.

Regarding “MBP/G1′-19′: fusion of maltose binding protein and COOH-terminal residues 1′-19′ of PapG”, the effect on hemagglutination entry in assay [2] (co-expression in strains producing P pili) was “only weak effects on the HA titer”. For the same molecule, the HA titer in assay [2] (highest dilution of cell suspension yielding detectable HA, co-expression with pap operon) came out at 64. Further, the “reduction of the amount of pili compared to MBP alone” value in assay [3] (co-expression with pap operon) is given as “about 50%”. Further, in assay [3] (densitometry of PapA bands, control HB101/pFJ3/pMAL-p4 = 100%), the Pilation percentage is 50%. Besides, the “inhibition of pilus assembly” value in assay [3] (expression in cells producing P pili) is given as “weak inhibitors”. Moreover, the “complex formation with PapD in vitro” value in assay [4] is “no complexes”. For the same molecule, the “interaction of PapD with MBP/G protein in vivo (co-elution)” value in assay [5] (co-expressed, SDS-PAGE and western blot of eluates) was “only weakly”. Also, the “stable complexes with PapD in the eluates” value in assay [5] (silver stained IEF gel) is reported as “not possible to detect stable complexes”. Further, in assay [6], the “PapD binding to immobilized fusion protein” value is recorded as “weakly”.

B1: wild type PapD: periplasmic chaperone PapD of E. coli, wild type (protein, UniProt P15319 22-239, looked up)
Chaperone protein PapD: T1 sequence (P15319 22-239)
Turning to B1, the “mobility shift on incubation with G1′-19′WT peptide” value in assay [7] is “cause a mobility shift”.

B2: full-length PapG: P pilus tip adhesin PapG (protein)
chain: GWHNVMFYAFNDYLTTNAGNVKVIDQPQLYIPWNTGSATATYYSCSGPEFASGVYFQEYLAWMVVPKHVYTNEGFNIFLDVQSKYGWSMENENDKDFYFFVNGYEWDTWTNNGARICFYPGNMKQLNNKFNDLVFRVLLPVDLPKGHYNFPVRYIRGIQHHYYDLWQDHYKMPYDQIKQLPATNTLMLSFDNVGGCQPSTQVLNIDHGSIVIDRANGNIASQTLSIYCDVPVSVKISLLRNTPPIYNNNKFSVGLGNGWDSIISLDGVEQSEEILRWYTAGSKTVKIESRLYGEEGKRKPGELSGSMTMVLSFP
In the case of B2, the “complex formation with PapD” value in assay [8] was “formed a complex”.

Values taken from patent publication US6596504B2, “Treatment of prophylaxis of diseases caused by pilus-forming bacteria” (Washington University, priority 1993, dated 2003).
